These results are taken from patent US20230149462A1 (JUNO THERAPEUTICS, published 2023).

T1: human BCMA (human, UniProt Q02223 1-54, limits assumed)
T1 construct: also called B-cell maturation antigen; human BCMA polypeptide
T1 sequence: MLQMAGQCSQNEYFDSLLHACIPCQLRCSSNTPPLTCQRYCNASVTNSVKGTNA

B1: BCMA-25 scFv (scFv)
scFv: EVQLVQSGGGLVQPGRSLRLSCTASGFTFGDYAMSWFRQAPGKGLEWVGFIRSKAYGGTTEYAASVKGRFTISRDDSKSIAYLQMNSLKTEDTAVYYCAAWSAPTDYWGQGTLVTVSSGGGGSGGGGSGGGGSDIQMTQSPAFLSASVGDRVTVTCRASQGISNYLAWYQQKPGNAPRLLIYSASTLQSGVPSRFRGTGYGTEFSLTIDSLQPEDFATYYCQQSYTSRQTFGPGTRLDIK
B2: BCMA-26 scFv (scFv)
scFv: EVQLVESGGGLVKPGGSLRLSCAASGFTFSDYYMSWIRQAPGKGLEWVSYISSSGSTIYYADSVKGRFTISRDNAKNSLYLQMNSLRAEDTAVYYCAKVDGPPSFDIWGQGTMVTVSSGGGGSGGGGSGGGGSSYVLTQPPSVSVAPGQTARITCGANNIGSKSVHWYQQKPGQAPMLVVYDDDDRPSGIPERFSGSNSGNTATLTISGVEAGDEADYFCHLWDRSRDHYVFGTGTKLTVL
B3: BCMA-55-scFv (scFv)
scFv: QSALTQPASVSASPGQSIAISCTGTSSDVGWYQQHPGKAPKLMIYEDSKRPSGVSNRFSGSKSGNTASLTISGLQAEDEADYYCSSNTRSSTLVFGGGTKLTVLGSRGGGGSGGGGSGGGGSLEMAEVQLVQSGAEMKKPGASLKLSCKASGYTFIDYYVYWMRQAPGQGLESMGWINPNSGGTNYAQKFQGRVTMTRDTSISTAYMELSRLRSDDTAMYYCARSQRDGYMDYWGQGTLVTVSS
notes: also called BCMA-55-scFV-mFc
B4: BCMA-23 scFv (scFv)
scFv: EVQLVESGGGLVKPGGSLRLSCAASGFTFSDYYMSWIRQAPGKGLEWVSYISSSGSTIYYADSVKGRFTISRDNAKNSLYLQMNSLRAEDTAVYYCAKVDGDYTEDYWGQGTLVTVSSGGGGSGGGGSGGGGSQSALTQPASVSGSPGQSITISCTGSSSDVGKYNLVSWYQQPPGKAPKLIIYDVNKRPSGVSNRFSGSKSGNTATLTISGLQGDDEADYYCSSYGGSRSYVFGTGTKVTVL
B5: BCMA-52-scFv-mFc (Fc fusion)
chain: SYELTQPPSASGTPGQRVTMSCSGTSSNIGSHSVNWYQQLPGTAPKLLIYTNNQRPSGVPDRFSGSKSGTSASLAISGLQSEDEADYYCAAWDGSLNGLVFGGGTKLTVLGSRGGGGSGGGGSGGGGSLEMAEVQLVQSGAEVKKPGESLKISCKGSGYSFTSYWIGWVRQMPGKGLEWMGIIYPGDSDTRYSPSFQGHVTISADKSISTAYLQWSSLKASDTAMYYCARYSGSFDNWGQGTLVTVSS
notes: not shown: mFc portion named in the label

The test addresses T1, human BCMA. The experiment in a line: CLIPS peptide epitope mapping (Pepscan). The method, then: Epitopes recognized, e.g., specifically bound by exemplary anti-BCMA scFv clones, were determined based on full discontinuous epitope mapping by Chemical Linkage of Peptides onto Scaffolds (CLIPS; Pepscan Presto BV, Lelystad, The Netherlands; see, e.g., Timmerman et al., (2007) J. Mol. Recognit. 20: 283-329). […] In some aspects, such antibodies recognize a non-linear or linear epitope including residues of such peptide of SEQ ID NO: 160, and in some aspects recognize a non-linear epitope further including residues of CIPCQLR (set forth in SEQ ID NO:159), […] and/or SVTNSVK (set forth in SEQ ID NO:161).
For B1, the binding result is “binds”.

Regarding B2, the binding result is listed as “binds”.

B3: the binding result is on record as “binds”.

For B4, the binding result was “binds”.

On to B5, for which the binding result is given as “binds”.
